Test results from patent publication US20250277030A1 (Zymeworks, published 2025).
Blank lines part the entries; values can stand above or below the binder they belong to.

Key:
[1] = molecular target: T1, human sodium-dependent phosphate transporter 2B (NaPi2b) (human, UniProt O95436 1-690); test: KinExA, IGROV-1 cells (endogenous NaPi2b) as titrant, monovalent antibody constant at 50 and 500 pM, N-curve analysis
T1 construct: UniProt ID is given as 095436 [sic]; also called hNaPi2b; Hu NaPi2b
T1 sequence: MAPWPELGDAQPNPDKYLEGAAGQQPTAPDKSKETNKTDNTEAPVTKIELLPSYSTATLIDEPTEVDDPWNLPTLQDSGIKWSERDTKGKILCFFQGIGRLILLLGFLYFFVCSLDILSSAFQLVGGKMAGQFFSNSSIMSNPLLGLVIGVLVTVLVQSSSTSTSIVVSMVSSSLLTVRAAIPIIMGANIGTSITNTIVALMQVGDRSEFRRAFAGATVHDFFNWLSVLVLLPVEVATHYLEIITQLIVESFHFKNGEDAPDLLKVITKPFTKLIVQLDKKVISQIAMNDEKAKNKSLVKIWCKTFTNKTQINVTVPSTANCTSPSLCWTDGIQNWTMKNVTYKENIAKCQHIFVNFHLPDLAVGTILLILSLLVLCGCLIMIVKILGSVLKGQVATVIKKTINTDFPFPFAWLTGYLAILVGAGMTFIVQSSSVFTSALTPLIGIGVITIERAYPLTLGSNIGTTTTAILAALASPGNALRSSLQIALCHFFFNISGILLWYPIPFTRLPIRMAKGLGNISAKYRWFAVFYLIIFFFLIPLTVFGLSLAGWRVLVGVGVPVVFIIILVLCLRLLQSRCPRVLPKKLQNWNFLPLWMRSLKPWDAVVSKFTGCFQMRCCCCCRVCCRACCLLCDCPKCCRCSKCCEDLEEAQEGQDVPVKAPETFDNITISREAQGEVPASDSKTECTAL
Description: The cell-binding assay was set up using the antibody constructs or variants as constant binding partner at two different concentrations of 50 pM and 500 pM. For the titration curve with antibody variants fixed at 50 pM, at least 10 million IGROV-1 cells were used as titrant. For the titration curve with antibody variants fixed at 500 pM, at least 5 million cells were used as titrant. The antibody variants and cells were mixed in PBS pH 7.4, 1 mg/mL BSA, 0.2% NaN₃ and incubated at 4° C. for 7 days with gentle rotation until equilibrium was reached. After incubation, the mixture of antibody variants and cells was centrifuged to separate the cells from the unbound free antibody variants. The free antibody variants were loaded onto the KinExA 3200 (Sapidyne, Boise, Idaho) with biotinylated—anti-human IgG PMMA as solid phase and 0.5 μg/mL of Alexa 647 goat anti-human IgG (Jackson ImmunoResearch, West Grove, PA) as detection antibody.
N-curve analysis was used to calculate the affinity and receptor expression level with the concentrations of antibody variant as reference point.

[2] = molecular target: T1, human sodium-dependent phosphate …; test: cell-based or functional assay
[3] = molecular target: T1, human sodium-dependent phosphate …; test: flow cytometry, IGROV-1 cells (endogenous NaPi2b), 24 h at 4 °C
Description: (§1) IGROV-1 cells express endogenous NaPi2b at a high level.
(§2) Briefly, cells were seeded at 50,000 cells/well in conical-bottom 96-well plates and treated with test antibody for 24 hours at 4° C. to prevent internalization. […] Following incubation, cells were washed and stained with anti-Human IgG Fc AF647 conjugate (Jackson Immuno Research Labs, West Grove, PA; Cat. No. 109-605-098) at 4° C. for 30 min. Following incubation and washing, fluorescence was detected by flow cytometry on a BD LSRFortessa™ Cell Analyzer (BD Biosciences, Franklin Lake, NJ) with 1,000 minimum events collected per well. The AF647/APC-A GeoMean (fluorescence signal geometric mean, proportional to anti-Human AF647 binding) was calculated for the live cell population using FlowJo™ Version 10.8.1 (BD Biosciences, Franklin Lake, NJ) and plotted for each test antibody using GraphPad Prism Version 9 (GraphPad Software, San Diego, CA).

[4] = molecular target: T1, human sodium-dependent phosphate …; test: flow cytometry, IGROV-1 cells (endogenous NaPi2b), 24 h at 4 °C; apparent Kd
Description: as §1, §2

[5] = molecular target: T1, human sodium-dependent phosphate …; test: flow cytometry, HEK293-6e cells transfected with human NaPi2b
Description: (§3) The binding cross-reactivity of humanized antibody variant v29456 to human, cynomolgus and mouse NaPi2b was assessed by flow cytometry using HEK293-6e transfected cells.
(§4) Briefly, HEK293-6e cells were transfected for ˜24 hours to transiently express human NaPi2b, cynomolgus or mouse NaPi2b, at 1 μg of DNA per 1 million cells. Following transfection, 50,000 cells per well were seeded in V-bottom 96-well plates and incubated with 200 nM of primary antibody for 18-24 hours at 4° C. to prevent internalization. Post-incubation, cells were washed and stained with anti-Human IgG Fc AF647 conjugate (Jackson Immuno Research Labs, West Grove, PA, Cat. No. 109-605-098, Lot. No. 124868) at 4° C. for 1 hour. Following staining and washing, fluorescence was detected by flow cytometry on BD LSRFortessa™ Cell Analyzer (BD Biosciences, Franklin Lake, NJ) with 10,000 minimum events collected per well. The AF647/APC-A GeoMean (fluorescence signal geometric mean, proportional to anti-Human AF647 binding) was calculated for the live singlet cell population for each primary antibody using FlowJo™ v8 software (BD Biosciences, Franklin Lake, NJ). The Bmax and Kd of each primary antibody were calculated using GraphPad Prism Version 9 (GraphPad Software, San Diego, CA)

[6] = molecular target: T1, human sodium-dependent phosphate …; test: flow cytometry, IGROV-1 cells (endogenous NaPi2b); apparent Kd
Description: as §2
(§5) The ability of the humanized antibody variants v38591 and v29456 to bind to NaPi2b expressed on cells was assessed on endogenous NaPi2b-expressing tumor cell lines IGROV-1 (ovarian adenocarcinoma) and TOV-21G (ovarian carcinoma) by flow cytometry.
(§6) Cellular binding was performed according to methods described in Example 13.

[7] = molecular target: T1, human sodium-dependent phosphate …; test: flow cytometry, TOV-21G cells (endogenous NaPi2b); apparent Kd
Description: as §2, §5, §6

cynomolgus monkey NaPi2b [8] = molecular target: T2, cynomolgus monkey NaPi2b (cynomolgus monkey, UniProt O95436 1-690 (human entry)); test: flow cytometry, HEK293-6e cells transfected with cynomolgus NaPi2b
T2 construct: Transiently expressed on HEK293-6e cells; also called Cyno NaPi2b
T2 chain: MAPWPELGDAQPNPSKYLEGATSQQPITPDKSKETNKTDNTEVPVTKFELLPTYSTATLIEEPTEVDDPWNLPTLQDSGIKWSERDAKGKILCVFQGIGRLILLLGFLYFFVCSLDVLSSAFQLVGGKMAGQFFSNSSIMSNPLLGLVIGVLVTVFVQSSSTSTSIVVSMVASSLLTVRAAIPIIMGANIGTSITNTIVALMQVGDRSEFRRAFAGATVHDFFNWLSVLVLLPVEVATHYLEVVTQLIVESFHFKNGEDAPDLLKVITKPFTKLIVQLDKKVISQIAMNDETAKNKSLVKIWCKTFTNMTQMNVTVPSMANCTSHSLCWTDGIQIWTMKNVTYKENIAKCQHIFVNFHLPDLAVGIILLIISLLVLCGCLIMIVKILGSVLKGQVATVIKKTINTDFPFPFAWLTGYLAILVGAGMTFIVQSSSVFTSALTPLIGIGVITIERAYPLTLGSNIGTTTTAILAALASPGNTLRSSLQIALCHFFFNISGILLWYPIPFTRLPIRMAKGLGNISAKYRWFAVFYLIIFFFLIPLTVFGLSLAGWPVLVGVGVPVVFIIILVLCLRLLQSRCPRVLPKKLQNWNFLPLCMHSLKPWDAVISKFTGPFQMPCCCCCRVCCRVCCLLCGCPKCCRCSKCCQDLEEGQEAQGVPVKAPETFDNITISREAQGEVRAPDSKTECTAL
Description: as §3, §4

[9] = molecular target: T1, human sodium-dependent phosphate …; test: flow cytometry, HEK293-6e cells transfected with human NaPi2b; apparent Kd
Description: as §3, §4

[10] = molecular target: T1, human sodium-dependent phosphate …; test: as above; remark: listed apart in the source
Description: The binding cross-reactivity of humanized antibody variant v38591 to human NaPi2b, NaPi2a, and NaPi2c was assessed by flow cytometry using HEK293-6e transfected cells.
Following transfection, cells were seeded at 50,000 cells/well in conical-bottom 96-well plates and treated with test antibody for 24 hours at 4° C. to prevent internalization. Following incubation, cells were washed and stained with anti-Human IgG Fc AF647 conjugate (Jackson Immuno Research Labs, West Grove, PA; Cat. No. 109-605-098) or anti-Rabbit IgG F(ab″)2 AF647 conjugate (Jackson Immuno Research Labs, West Grove, PA; Cat. No. 111-605-047). Following incubation and washing, fluorescence was detected by flow cytometry on a BD LSRFortessa™ Cell Analyzer (BD Biosciences, Franklin Lake, NJ) with 1,000 minimum events collected per well. The AF647/APC-A GeoMean (fluorescence signal geometric mean, proportional to anti-Human AF647 binding) was calculated for the live cell population using FlowJo™ Version 10.8.1 (BD Biosciences, Franklin Lake, NJ) and plotted for each test antibody using GraphPad Prism Version 9 (GraphPad Software, San Diego, CA).

cynomolgus monkey NaPi2b [11] = molecular target: T2, cynomolgus monkey NaPi2b; test: flow cytometry, HEK293-6e cells transfected with cynomolgus NaPi2b; apparent Kd
Description: as §3, §4

[12] = molecular target: T1, human sodium-dependent phosphate …; test: flow cytometry on IGROV-1 cells (endogenous NaPi2b), 24 h at 4 C, anti-human IgG Fc AF647 detection
Description: as §2, §5, §6

[13] = molecular target: T1, human sodium-dependent phosphate …; test: flow cytometry on TOV-21G cells (endogenous NaPi2b), 24 h at 4 C, anti-human IgG Fc AF647 detection
Description: as §2, §5, §6

B2: v18993-DL2, lifastuzumab conjugated to MT-VC-Compound 1 (DAR 4) (antibody, human IgG1, kappa)
heavy 1: GEVQLVESGGGLVQPGGSLRLSCAASGFSFSDFAMSWVRQAPGKGLEWVATIGRVAFHTYYPDSMKGRFTISRDNSKNTLYLQMNSLRAEDTAVYYCARHRGFDVGHFDFWGQGTLVTVSSASTKGPSVFPLAPSSKSTSGGTAALGCLVKDYFPEPVTVSWNSGALTSGVHTFPAVLQSSGLYSLSSVVTVPSSSLGTQTYICNVNHKPSNTKVDKKVEPKSCDKTHTCPPCPAPELLGGPSVFLFPPKPKDTLMISRTPEVTCVVVDVSHEDPEVKFNWYVDGVEVHNAKTKPREEQYNSTYRVVSVLTVLHQDWLNGKEYKCKVSNKALPAPIEKTISKAKGQPREPQVYVYPPSRDELTKNQVSLTCLVKGFYPSDIAVEWESNGQPENNYKTTPPVLDSDGSFALVSKLTVDKSRWQQGNVFSCSVMHEALHNHYTQKSLSLSPG
heavy 2: not shown
light: GDIQMTQSPSSLSASVGDRVTITCRSSETLVHSSGNTYLEWYQQKPGKAPKLLIYRVSNRFSGVPSRFSGSGSGTDFTLTISSLQPEDFATYYCFQGSFNPLTFGQGTKVEIKRTVAAPSVFIFPPSDEQLKSGTASVVCLLNNFYPREAKVQWKVDNALQSGNSQESVTEQDSKDSTYSLSSTLTLSKADYEKHKVYACEVTHQGLSSPVTKSFNRGEC
modifications: MT-VC-Compound 1 (DL2) on cysteines freed by reduction; positions not given; MT-VC-Compound 1 (DL2) on cysteines freed by reduction; positions not given; DAR 4 for the whole antibody
notes: also called Lifa Compound 1 ADC; lifastuzumab-DL2 ADC
- In vitro cytotoxicity EC50 (nM), HCC-78 [2]: 1.77 nM
- In vitro cytotoxicity EC50 (nM), IGROV-1 [2]: 2.12 nM
- In vitro cytotoxicity EC50 (nM), OVCAR-3 [2]: 0.49 nM
- Bmax (MFI) [3]: 39800 MFI
- Kd [4]: 3 nM

B3: v18993, reference anti-NaPi2b antibody lifastuzumab (antibody, human IgG1, kappa)
heavy 1: B2 heavy 1
heavy 2: not shown
light: B2 light
notes: Two different heavy chain clones (CL_#11677, CL_#11678)
- Bmax (APC-A GeoMean) [5]: 1610 APC-A GeoMean
- Kd [6]: 0.81 nM
- Kd [7]: 0.67 nM
- Bmax (APC-A GeoMean) (cynomolgus monkey NaPi2b [8]): 1560 APC-A GeoMean
- Kd [9]: 1.22 nM
- Kd [10]: 5.76 nM
- Kd (cynomolgus monkey NaPi2b [11]): 6.27 nM
- EC50 (read off the curve) [12]: ~0.8 nM
- EC50 (read off the curve) [13]: ~0.7 nM

Second part, the binder after the results:

- Kd [1]: 0.15 nM
B1: v29814, monovalent format of parental chimeric variant 23855 (antibody, V domains shown)
VH: QAYLQQSGAELVRPGASVKMSCKASGFTFTSYNVHWVKQTPRQGLEWIAAISPGNGDLSYNQRFKDKATLTVDRSSSTAYMQLSGLTSEDSAVYFCARGRTGMGAVDYWGQGTSVTVSS
VL: DVQMTQTASSLSASLGDRVTISCRASQDVYSYLNWYQQKPHGTVKLLIYYTSRLQSGVPSRFTGSGSGTDYSLTISNLEPEDIATYYCQQYNIFPWTFGGGTKLEIK
notes: Only said to be the monovalent format of v23855; it is captured and detected with anti-human IgG; also called v29814 (parental chimeric)

- Bmax (MFI) [3]: 40100 MFI
- Kd [4]: 1.67 nM
B4: v29460 humanized anti-NaPi2b antibody (H1L1) (antibody, human IgG1, kappa, V domains shown)
VH: QVQLVQSGAEVKKPGASVKVSCKASGFTFTSYNVHWVRQAPGQGLEWMGAISPGNGDLSYAQKFQGRVTMTRDTSTSTVYMELSSLRSEDTAVYYCARGRTGMGAVDYWGQGTLVTVSS
VL: DIQMTQSPSSLSASVGDRVTITCRASQDVYSYLNWYQQKPGKAPKLLIYYTSRLQSGVPSRFSGSGSGTDFTLTISSLQPEDFATYYCQQYNIFPWTFGQGTKLEIKR
